B2: Δ9AA-ZnT2-YC (other)
chain: MEAKEKQHLLDARPAIRSYTGSLWQEGAGWIPLPRPGLDLQAIELAAQSNHHCHAQKGPDSHCDPKKGKAQRQLYVASAICLLFMIGEVVGGYLAHSLAVMTDAAHLLTDFASMLISLFSLWMSSRPATKTMNFGWQRAEILGALVSVLSIWVVTGVLVYLAVERLISGDYEIDGGTMLITSGCAVAVNIIMGLTLHQSGHGHSHGTTNQQEENPSVRAAFIHVIGDFMQSMGVLVAAYILYFKPEYKYVDPICTFVFSILVLGTTLTILRDVILVLMEAVRDLLLSVEGVEALHSLHIWALTVAQPVLSVHIAIAQNTDAQAVLKTASSRLQGKFHFHTVTIQIEDYSEDMKDCQACQGPSD
modifications: Carries a C-terminal YC reporter (non-fluorescent C-terminal half of YFP), not included in the letters.
notes: Deletion introduced into the ZnT2 BiFC plasmid by site-directed mutagenesis (27 bp, 839_865del); also called Δ9AA-YC; truncated Δ9AA-ZnT2; not shown: YC, the C-terminal half of YFP, and any linker to it
B3: WT-ZnT2-YN (other)
chain: MEAKEKQHLLDARPAIRSYTGSLWQEGAGWIPLPRPGLDLQAIELAAQSNHHCHAQKGPDSHCDPKKGKAQRQLYVASAICLLFMIGEVVGGYLAHSLAVMTDAAHLLTDFASMLISLFSLWMSSRPATKTMNFGWQRAEILGALVSVLSIWVVTGVLVYLAVERLISGDYEIDGGTMLITSGCAVAVNIIMGLTLHQSGHGHSHGTTNQQEENPSVRAAFIHVIGDFMQSMGVLVAAYILYFKPEYKYVDPICTFVFSILVLGTTLTILRDVILVLMEGTPKGVDFTAVRDLLLSVEGVEALHSLHIWALTVAQPVLSVHIAIAQNTDAQAVLKTASSRLQGKFHFHTVTIQIEDYSEDMKDCQACQGPSD
modifications: Carries a C-terminal YN reporter (non-fluorescent N-terminal half of YFP), not included in the letters.
notes: BiFC construct expressed in living MCF-7 cells; not shown: YN, the N-terminal half of YFP, and any linker to it

The target in test [1] is T1, WT-ZnT2-YC (human, UniProt Q9BRI3 1-372, Carries a C-terminal YC reporter (non-fluorescent C-terminal half of YFP), not included in the letters.).
T1 construct: BiFC construct expressed in living MCF-7 cells; not shown: YC, the C-terminal half of YFP, and any linker to it
T1 sequence: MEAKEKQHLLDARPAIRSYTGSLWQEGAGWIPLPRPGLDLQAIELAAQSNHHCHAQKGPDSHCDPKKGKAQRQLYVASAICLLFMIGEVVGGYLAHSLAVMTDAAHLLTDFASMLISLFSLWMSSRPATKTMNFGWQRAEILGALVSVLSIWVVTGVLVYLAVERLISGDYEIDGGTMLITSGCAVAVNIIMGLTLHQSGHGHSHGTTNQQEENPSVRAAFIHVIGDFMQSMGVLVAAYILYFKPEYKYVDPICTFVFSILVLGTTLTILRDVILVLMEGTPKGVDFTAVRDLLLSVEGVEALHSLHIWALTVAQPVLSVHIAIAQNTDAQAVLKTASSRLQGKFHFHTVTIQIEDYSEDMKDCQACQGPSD
The test is described as follows: BiFC in MCF-7 cells, YFP fluorescence by flow cytometry. The protocol:
(§1) The ability of the alternative 3′ splice variant (Δ9AA) ZnT2 to form homodimers was evaluated using the bimolecular fluorescence complementation (BiFC) assay that has been previously applied for the detection of in situ dimerization of ZnT2 and other ZnTs in living cells. High YFP fluorescence intensity indicates a strong interaction between the two tagged proteins, as this enables the refolding of the two non-fluorescent halves of YFP (YN and YC) into a fully fluorescent protein.

Test [2] has as its target B2. The test is described as above. On the procedure:
as §1

Test [3] deals with B3. The description is as above. On the procedure: as §1
Test [4] concerns the target T2, β2AR-YC (UniProt P07550 1-413).
T2 construct: whole, on cells; Negative control partner in the BiFC assay; not shown: YC: non-fluorescent C-terminal half of YFP (BiFC tag)
The test is described as above. On the procedure:
as §1

Test [5] has as its target T1, WT-ZnT2-YC. Put plainly: western blot of BiFC transfectants (SDS-metastable dimers), anti-ZnT2 antibody. The protocol:
MCF-7 cells were transiently transfected with the designated plasmids (3 μg in single construct transfection and 1.5 μg DNA of each construct in co-transfections). Membrane proteins were isolated on ice using an extraction buffer as previously described (Golan Y., et al., Journal of Biological Chemistry, 2015, 290(14):9050-63). Briefly, proteins (30 μg) were resolved by electrophoresis on 10% polyacrylamide gels, electroblotted onto cellulose nitrate membranes, blocked with Tris-buffered saline (TBS)-milk and reacted with mouse anti-ZnT2 monoclonal antibody (at 1:2,000 dilution, 1 hr at room temperature; generously provided by Prof T Kambe, Kyoto University, Kyoto, Japan). […] Similarly, actual protein loading onto the SDS-PAGE gels was confirmed by blot reprobing with a rabbit polyclonal antibody against the a subunit of Na⁺/K⁺ ATPase (KETTY at 1:3,000 dilution; kindly provided by Prof. S. J. D. Karlish, Weizmann Institute of Science, Rehovot, Israel) and detected with horseradish peroxidase-conjugated goat anti-rabbit IgG (1:15,000 dilution; Jackson Immunoresearch Labs, West Grove, Pa.).
The dimerization results were further confirmed by western blot analysis. […] However, in contrast to the ZnT2 protein which was predominantly present in the homodimer form (FIG. 4C, uppermost band), upon co-transfection of Δ9AA-YN+Δ9AA-YC no homodimers were detected (FIG. 4C). […]
A general note: Immunoblotting shows a protein as a band on a membrane.

B1: Δ9AA-ZnT2-YN (other)
chain: MEAKEKQHLLDARPAIRSYTGSLWQEGAGWIPLPRPGLDLQAIELAAQSNHHCHAQKGPDSHCDPKKGKAQRQLYVASAICLLFMIGEVVGGYLAHSLAVMTDAAHLLTDFASMLISLFSLWMSSRPATKTMNFGWQRAEILGALVSVLSIWVVTGVLVYLAVERLISGDYEIDGGTMLITSGCAVAVNIIMGLTLHQSGHGHSHGTTNQQEENPSVRAAFIHVIGDFMQSMGVLVAAYILYFKPEYKYVDPICTFVFSILVLGTTLTILRDVILVLMEAVRDLLLSVEGVEALHSLHIWALTVAQPVLSVHIAIAQNTDAQAVLKTASSRLQGKFHFHTVTIQIEDYSEDMKDCQACQGPSD
modifications: Carries a C-terminal YN reporter (non-fluorescent N-terminal half of YFP), not included in the letters.
notes: Deletion introduced into the ZnT2 BiFC plasmid by site-directed mutagenesis (27 bp, 839_865del); also called Δ9AA-YN; truncated Δ9AA-ZnT2; not shown: YN, the N-terminal half of YFP, and any linker to it
With B1, the binding result in test [1] and in test [2] was “no binding” in each case.

B2: the binding result in test [3] is recorded as “no binding”.

On to B3, for which the binding result in test [4] is on record as “no binding”; in test [5], “binds”.

These data come from US20200040396A1 (TECHNION RESEARCH AND DEVELOPMENT FOUNDATION, published 2020).
